# Results as given in the supplement of paper PMC12636428.
# Tested on: Saccharomyces cerevisiae
# Assay: transcriptional activation domain activity (GFP:mCherry ratio, weighted mean of sorted bins, harmonized to initial dataset scale) (arbitrary fluorescence ratio units); higher = stronger transcriptional activation
# Conditions: beta-estradiol 1 µM; induction time 4 h
# Summary of the method: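 For this assay, yeast diploids with a GFP reporter carried barcoded protein tiles at URA3, each fused to an estradiol-inducible synthetic transcription factor. Induction was a 1:5 dilution into SC with 1 uM beta-estradiol for 4 hours at 30 °C, followed by sorting into 8 bins by GFP:mCherry ratio and barcode sequencing. Tiles under 50 reads were dropped, and activation activity was calculated as the read-weighted mean of bin median fluorescence, averaged across barcodes and linearly mapped onto the initial dataset scale.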
row,Sequence,transcriptional activation domain activity
1,MLLKRVHSKVYVQDCLLIGGRSIFVLDMHLFFKLLLFTAASIRNQTVIMLIFV,54100
2,MLLKVSEPFSLFVYISGSAITLFSFFKFLFSLFFLLLILFFFPLFFFFPIVIV,80000
3,MLLLFVYPCSPLSHCSSFYSYYLIIKLLLFYDIKNLSFFFFLEYFDLWWLITI,78500
4,MLLLGYILYLFYYGRYLYGILAFYCFSLLYVTLLPFIFVSARLFLHFTQIGIR,53600
5,MLLLKCSLSWIIRKGIYRAKSVMYLWVVANECCSLSMAEWLFLHQSVCSICQC,58100
6,MLLLLIIRKVLILGKPFFINHLHILLYPDTVLSPFLLLSFPLTLPLSLLLLLL,106000
7,MLLLLITHIGIAILFVCWNPRFSCPNQSPDQQGTCRLFNMYILISSWIIPAFL,55600
8,MLLLLPLHMLLQRHTLPNFFTFFSIIIIFLFLFSFFFFLFFFFLLFFLLLPGG,76400
9,MLLLLYLILYLMMMLFAVCALISIYLCIYTLPLLSFPFFLALFYFILFLYVYL,45200
10,MLLLPFIPSYLTFFLIFLFVLFDFHFWFLFLFGLTFSCCCWTLSFCKTSLIWF,57700
11,MLLLPLSFPFLSFPFLSFPFLSFPFLSSPFLSLVFSVLVLFFIFLLLLLLLLL,34900
12,MLLLPYAVFCIISFFHSFLFFLLLGGWLGCIFYLRVVHMHWLVRWFVWLVHGG,65300
13,MLLLRVAGGRVMGCDVVGGFFFIFLFYLFIILGFVCCLVGWHVCWVFWFLVGF,54300
14,MLLLSPFFPFLLPSSLSFFFPFPFISTLLSFCLSDTLFNLARSFFIAFLSTLF,42600
15,MLLMPRLCPVYLIHFCMIYALHLVAPHLSFPLISSGFLIIFTLHYTSTLLTCL,49400
16,MLLNLRGHIDEHLQYIIATSFKLMDTAETFALRLANLEVLINTVLYNAAAALH,48600
17,MLLNMLMLWILYIFSVTTFSTFRYFIILPVPSLMDYSEFFRACMLGAFVLSPV,71000
18,MLLNVFFFFPSSILGSFLYTDLFYFGFFSLIMLFPFKLPCIQPTFFFFTPSFI,44500
19,MLLPFVCLLFFLLAFLFSLSLSALFCFSKRRLIPILFFIASLLLYNFVFPPFF,38400
20,MLLPVSYSWLPLLFIPTNASPAFIFLFFVCTYFLNRPCVYCSFLLLILFVTSC,42200
21,MLLRRAVSLGVEGFFIFFYFLLMGLHCICLRGSSPWVDMFLFFVFFVSLVGFF,72200

row,Sequence,transcriptional activation domain activity
1,MLLSAHFIDFFLLLLLLLLLHLIVPLIFILHHSLLFFLVLPIVCNYFFSWLPV,78400
2,MLLSIWCHHFTFLFFFFFFFDHRFFCFFYSHLFYAVSYSFLLLLLLLYELLLV,47100
3,MLLSLGPVLFSFGHPPLIHLCLVPHPVFFSYPFSLLFISPISSLDYFCFSFPF,45400
4,MLLSLYLLTPFFIDMLLALHPFTLLCVHLPTCPCILLSCFRSYPCLSLWFPFS,45900
5,MLLSMLYNSVGYQYLEDHCPQGGEYSDLLRNLINECEAILPSYEIIERYKNHF,39500
6,MLLSSLLCYFLNFSSSSHSVGGWFILPYGNRLLHVAFFPSLLLFRLFFFLWLA,52600
7,MLLTFFFPLYCTSSFRVTQFLYPFQTLLFTFVFQAYLLLFLLFLLLLLLCFSP,41000
8,MLLTLLLLYILRRCAHTSYIFFSHSGFDFGHLIWGWVSCRLLTFWFLLYSSLL,33100
9,MLLTLLWLFFFFFFFFFPNIPPGVLFTFPSFDLLFASWFISSICASPFFAQFP,56100
10,MLLTLQSYFFFLLMFLVNSVSLLSFFSIFVFIIFLRYGCRMLWWHLHCIYPIF,38000
11,MLLTVYMFIIVCTCLAQLKIQSLSFLIYYHYINLVLLLLIAGLLYGLSFVRFS,48500
12,MLLTVYMFIIVFSFFICYHYINLVLQILIAGLLYGLSYVRFSMNWIIYFYNQC,78400
13,MLLVSLVRVVHGFTVQQYIYTGQWLLYISLIFFLLHFPLVMKPITFLTILCLA,55100
14,MLLYTFILIVHIHRDLGSIDFVWKARNETASLRQRYLAVNYQLLFGVIKYLWA,33400
15,MLMAWVIHAKCSAVPQCPPRPAVRSYIGRITLSLIIRARCILEMIVFPTFICW,55600
16,MLMDLALTLDDLTVRSLSVVGASVFMAFTYATLPATLGWGTWFLLSVWTLIFY,64200
17,MLMFLRCGLGLRFGVLVCGCRSTFVCWSLQRAFANMLRARSLPWIFLAWVILL,76000
18,MLMGCLCSYLRPHSLGCEGCYLLLHSLFIYGLRLVIGRFMSWSFSLVSFLFFY,62100
19,MLMHASPRMPIVQIFFFIFIHLSPPPFPFFFSLILSHRYSISFFLSLFSLLYF,35800
20,MLMIVVNDTIFYITVISHILLAYYGLVTIDNGLLLSNPTWYCPLNYTLIATCI,61700
21,MLMLLGKHVLLLIKMISLMDPFQVNILLHRNNPFPAVSFFFYYSFCLFHILHF,55200

row,Sequence,transcriptional activation domain activity
1,MLMTKYMCKGSRLIFIFFCVFRLSMLFTFFSIVSDSCLYWCRVISYLVLLMTL,63700
2,MLMVLFSIFSTMPSPVYIIILFPSFLTFFFRYILSTVLGLWTFAFHLIPNSCW,65200
3,MLNLHQSCLLLCSLLIITGLGLASTIFIPVNPFYQLLLMENSAFPWIHFVIYC,38500
4,MLNLSYPFVLFILVPLILIPTCFCPFFVGPSYMSFCLSWLLPLFSFLPLLMLM,50300
5,MLNLVILAFVIVFSTFLIGCVDYAAIPTHHALSEVMLPHCYARLSPSTVLFLL,39700
6,MLNNSSSFFVVVPIIYTLIHYLSMLFLFGCLIHLFPYIPTCILQLLLFLLYLY,44500
7,MLPDEVSPWFQEVFIPTLLAYCGTFQHPWDLPQPFEDIIAELWPFVFPLSLPY,68000
8,MLPHCIVIIGILFSLLSDVYLYLESSLIHKVHLSSIPGTLLWHPAFFLCILCK,55800
9,MLPLVLLLLLLLLLLLLLLLLLLLLLLLLLIMMMIMMMMFLLFLLLLRARVRQ,13600
10,MLPQFQEGNCEDLWNVLVWCTIPIPFDDCEAYPCDYQQNPYPNHINFWFYLFW,55600
11,MLPQLIWGCFIFGLASILLCVTFIPNPSHGYIRMRQSYNSFKLYIFGPSFTYL,74800
12,MLPRLFFVAFATIPSPSSPLPPLPFLSSLAFFFSFFPHLISFLFVFFSFHTFF,51400
13,MLPRQRHSFWSVVTYLIMYYIIMYAFLYGIKYTHWIYFLSNHLVMWLLLLHFL,41100
14,MLPSPGETKNHAKSQSEIIQMLTDEFWANYNSGWEELINQSEFSTLFDDYKDN,116000
15,MLPTLRMLLGLICIAFLNRHCYGYSSRQMPMFAEAACFRIAHVLSPASAVYYP,59700
16,MLQHSWCFIFRLFDPLFFFFFFFFSTWNAIVGRWVFSLSFEPFFVRLLHLILY,37700
17,MLQIRSFVIAAFALPLCLLFCFFTLPFFALCPFLLYFPSFSILLLRLMLHLLV,49200
18,MLQLWRLCVDNLLMAFSNYFPLVLPHATRFYLFYFWLILRGLQLTRLFCVCFM,85300
19,MLQLWWLCVVFCVICFLCEWFRLGVVPPFLAATTLLQLFYFFYLLTFFCRVCA,50700
20,MLQQRGILRVFRIGLFILFVILLFSFLVFVTFFISLAFPHLLLVLCIFFHFFN,44200
21,MLQQVPRVCIISIFWNISALWAAKRFEPMVSAYSLLSNVPYVLRLVCSWQPTE,32200

row,Sequence,transcriptional activation domain activity
1,MLQRFWYLALLAKRRTDLFSFKLSCLELLCFLPISMVVCHIWVIMGPLFFILF,50800
2,MLQVALYMRSSSLIISIWPRLSCSRFLLVLQLIVFSFHCQLVYSIYLMLLAFS,58300
3,MLQVVVQCFGISLLYFRSGVYLCIFTVHGLGYLFCVFCVFGFHSVWVGLCFFV,56600
4,MLRCLLSFLLYIYQFKYCNAQVSINVPIDGRQFKFIESFQFLNLPFNVITSTV,67900
5,MLRCVFFLYCFLLVTFFSSRRVLVCAGAYLSSSYPLMPDCQYWVYFAFLRCFS,52400
6,MLRDYWLILIVNCQTIGCKLPIVMWSPLCLFLTLNHGLLWLWMCLALRFFSLF,35000
7,MLRFYVLISFFFFLCNHLLFLICFIYIREFLSHLSGALVLCFGCMVWFLNFPS,62000
8,MLRITLRVSIFLGYFPLFGWCAGFCFFRPFFFFFFACFRARWAFFFPSIRFFY,37300
9,MLRLLAMLAKYVAFLLVLLNIRSFPLVWHFRLFRAFIQLGLSLQWHKLTHFYL,60600
10,MLRLLFWYLLIFVCLFCSSSPSYLSIFCLFFLCLIFIPSSSYILLPFLFLTLY,37500
11,MLRLYHLMWDSGDYIYTIIGGWLPLPRDLMYVPFPGFYLKYMIFPTPLTLSVL,43600
12,MLRPYFFSPHFLLFVLVSAFNPGYYPPSLQFLSIICLYIFICPPPFFFISFPP,50800
13,MLRTWVLLLLVGLLGVFVRADDEPASEEPKSGGLSLSRLSQLVTSGVTGARPP,39300
14,MLRVIVLLIVIDHLLYLPWLYFATYNARLLSCQSSTGRIYIERNCHSHSYGDK,50700
15,MLRVPGSWFGMLFMGLLVSRERLSLLASLLFFVQVIFIRLLVVFWMICGGQIP,31400
16,MLRYFPTYRDEVVNAANYLNVVLSMDAFYYYQFCLNWTSTQLYDTWFNACFRI,59100
17,MLSFVIVRLLTSHLQLVWRAALLLCKPLCICPLQFLYDRESHYNLLCNEAVVF,68500
18,MLSGLRHLRDEHIFAAAVGFFSHIYYYRYGEHHMQAPLLFWMHISVFLMLFYW,40100
19,MLSHLVVSTPHCSIMFGPSMDWTRVFAFFLLLRFSLHWISNNCFVSPLLLLCY,69800
20,MLSIYNLQTRGIHPPNVVVGMAIFCGGLAHIFLLLFRSWNVGIICSMSCHILL,66200
